Among the data in publication PMC7907060, “Interaction of Plasmodium falciparum apicortin with α- and β-tubulin is critical for parasite growth and survival” (Scientific Reports, 2021) are Kd values, retold here.

For test [1], the target named is T1, recombinant Plasmodium falciparum α-tubulin-I (Plasmodium falciparum, UniProt Q6ZLZ9 1-453).
T1 construct: Plasmodium falciparum α-tubulin-I, cloned in pET28a+; also called Pfα-tubulin-I
Nature of the test: SPR; apicortin (12 µM) immobilised by amine coupling on a gold sensor chip; tubulins 100 nM-1 µM injected, 500 s; PBS; Autolab ESPRIT. Particulars: both partners purified.

Test [2] has as its target T2, recombinant Plasmodium falciparum β-tubulin (Plasmodium falciparum, UniProt Q7KQL5 1-445).
T2 construct: Plasmodium falciparum β-tubulin, cloned in pET28a+; also called Pfβ-tubulin
The description is as above. The conditions noted are these: both partners purified.

B1: recombinant Plasmodium falciparum apicortin (natural protein, UniProt C0H4E4 1-238, looked up)
chain: MENFDEVIKEYQKYLEGKEKTHKINSCKHPCCEEDNLKSVKNYFKVYHKKYIPSIIQKKKKERNEHAPPLLKDIQDKRCTNVFERLNDKQFYTGVQKTKFMELLKNNKNKSSYCYNNIKVFSTMLKKPCNYVVTPGTLGIQKYGIQTGRPKTIFLFNNEKKYDKGVYFLVKSYIKNIKSLCYEITKILQPSIGPTRKIYDQNFSLVRNVNDLINGGKYLCTSGDPPAPIRNLSLHFLT
notes: Plasmodium falciparum apicortin, cloned in pET28a+; the His tag is surmised from pET28a+ and Ni-NTA; also called PfApicortin
Regarding B1, the Kd in test [1] was 120 nM; in test [2] it was 750 nM.
